# Test results from the supplement of paper PMC9112550, “Optimization of the antimicrobial peptide Bac7 by deep mutational scanning” (BMC Biology, 2022).
# System: Escherichia coli TOP10
# Experiment: shrunken log2 fold change of peptide-encoding DNA abundance (4.5 h post-induction vs induction); higher = less antimicrobial activity (less host growth inhibition)
# Conditions: time post-induction: 4.5 h; library: site-saturation at positions 5, 18, 19, 20
# 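Also: peptides expressed intracellularly from a pBAD plasmid library in pooled LB shake-flask culture, induced with 0.3% L-arabinose, DNA abundance read by NGS, three biological replicates, DESeq2 with apeglm shrinkage.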
row,Sequence,shrunken log2 fold change
1,RRIRVRPPRLPRPRPRPWFLPRP,-0.386
2,RRIRVRPPRLPRPRPRPMRGPRP,0.444
3,RRIRFRPPRLPRPRPRPCHIPRP,-0.11
4,RRIRARPPRLPRPRPRPRCYPRP,0.0779
5,RRIRKRPPRLPRPRPRPQQEPRP,0.0644
6,RRIRMRPPRLPRPRPRPTPHPRP,1.13
7,RRIRQRPPRLPRPRPRPQKFPRP,-0.283
8,RRIRKRPPRLPRPRPRPCHGPRP,0.0847
9,RRIRGRPPRLPRPRPRPHLPPRP,0.0386
10,RRIRQRPPRLPRPRPRPGTIPRP,-0.259
11,RRIRERPPRLPRPRPRPDYAPRP,-0.0187
12,RRIRIRPPRLPRPRPRPAHYPRP,-0.153
13,RRIRLRPPRLPRPRPRPDIWPRP,-0.137
14,RRIRDRPPRLPRPRPRPKDHPRP,0.0158
15,RRIRWRPPRLPRPRPRPWSKPRP,-0.191
16,RRIRIRPPRLPRPRPRPWWKPRP,-0.102
17,RRIRGRPPRLPRPRPRPAFCPRP,0.731
18,RRIRNRPPRLPRPRPRPPQPPRP,0.621
19,RRIRVRPPRLPRPRPRPKVFPRP,-0.0519
20,RRIRLRPPRLPRPRPRPNLRPRP,-0.0377
21,RRIRDRPPRLPRPRPRPPYSPRP,-0.805
22,RRIRNRPPRLPRPRPRPFMWPRP,-0.134
23,RRIRRRPPRLPRPRPRPWYTPRP,-0.637
24,RRIRWRPPRLPRPRPRPNLKPRP,-0.0669

row,Sequence,shrunken log2 fold change
1,RRIRHRPPRLPRPRPRPIEMPRP,-0.00281
2,RRIRSRPPRLPRPRPRPAAEPRP,0.466
3,RRIRYRPPRLPRPRPRPNTYPRP,-0.988
4,RRIRGRPPRLPRPRPRPFGRPRP,-0.0748
5,RRIRYRPPRLPRPRPRPLRAPRP,0.669
6,RRIRARPPRLPRPRPRPFTYPRP,-0.0975
7,RRIRRRPPRLPRPRPRPPHSPRP,0.916
8,RRIRVRPPRLPRPRPRPCRCPRP,-0.239
9,RRIRNRPPRLPRPRPRPVWFPRP,-0.113
10,RRIRCRPPRLPRPRPRPQSFPRP,-0.253
11,RRIRTRPPRLPRPRPRPYWQPRP,-0.435
12,RRIRLRPPRLPRPRPRPCSQPRP,-0.0964
13,RRIRLRPPRLPRPRPRPPGKPRP,-0.0183
14,RRIRVRPPRLPRPRPRPTFIPRP,-0.166
15,RRIRFRPPRLPRPRPRPEQYPRP,-0.234
16,RRIRERPPRLPRPRPRPSKMPRP,-0.141
17,RRIRIRPPRLPRPRPRPGLSPRP,-0.0218
18,RRIRTRPPRLPRPRPRPYPEPRP,-0.817
19,RRIRSRPPRLPRPRPRPHFKPRP,-0.383
20,RRIRVRPPRLPRPRPRPYIWPRP,-0.504
21,RRIRGRPPRLPRPRPRPLNIPRP,-0.148
22,RRIRHRPPRLPRPRPRPMDEPRP,-0.204
23,RRIRGRPPRLPRPRPRPQIWPRP,0.293
24,RRIRFRPPRLPRPRPRPFTGPRP,-0.246
